Source: patent US20210403565A1 (BIOATLA, published 2021)

What was measured:
[1] = molecular target: T1, human CTLA4 expressed on the cell surface of CHO cells (human, UniProt P16410 36-223); experiment: FACS, cells expressing human CTLA4, assay pH 6.0, MFI; lot 6978 in Tris buffer, T0; unit from the axis Log[ng/mL]
T1 construct: whole, on cells; also called CHO-huCTLA4; huCTLA4
T1 sequence (looked up): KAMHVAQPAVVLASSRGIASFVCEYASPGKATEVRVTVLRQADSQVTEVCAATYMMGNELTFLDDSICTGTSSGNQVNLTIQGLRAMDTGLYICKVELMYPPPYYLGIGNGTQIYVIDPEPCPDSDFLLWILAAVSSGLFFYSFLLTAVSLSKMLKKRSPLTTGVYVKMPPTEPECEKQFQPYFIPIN
Procedure: The amount of bound antibodies was quantified using anti-human IgG antibody conjugated to fluorophores. The MFI in each reaction was proportional to the amount of antibodies bound. The EC₅₀ value (in ng/mL) for binding to human CTLA4 on cells was determined by MFI of the singlets population against antibody concentration with a Prism variable slope of four-parameter dose-response curve, which was calculated using the nonlinear fit (variable slope, four parameters) model built into GraphPad Prism software (version 7.03).

[2] = molecular target: T2, recombinant human CTLA4 extracellular domain (human, UniProt P16410 36-161); experiment: ELISA, wells coated with human CTLA4, assay pH 6.0; lot 6972 in Tris buffer, T2W; unit from the axis Log[ng/mL]
T2 construct: extracellular domain; also called huCTLA-4
T2 sequence (looked up): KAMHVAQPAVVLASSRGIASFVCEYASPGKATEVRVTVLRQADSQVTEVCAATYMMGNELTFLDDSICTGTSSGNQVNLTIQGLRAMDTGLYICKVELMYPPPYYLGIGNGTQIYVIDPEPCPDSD
Procedure: (§1) Both ELISA and FACS analysis were used to measure the binding activity. […] The amount of bound antibodies was quantified using anti-human IgG antibody conjugated to HRP. The absorbance at 450 nm in each measurement was proportional to the amount of antibodies bound. […] EC50 value (in ng/mL) for binding to human CTLA4 was determined by absorbance at 450 nm against antibody concentration with Prism variable slope of four-parameter dose-response curve, which was calculated using the nonlinear fit (variable slope, four parameters) model built into GraphPad Prism software (version 7.03). The buffers tested included His buffer (His), Tris buffer (Tris), Glutamine buffer (Glu) and no buffer.

[3] = molecular target: T2, recombinant human CTLA4 extracellular …; experiment: ELISA, immobilised huCTLA-4, table head pH 7.0 (text: pH 7.4), Jun. 29, 2017
[4] = molecular target: T2, recombinant human CTLA4 extracellular …; experiment: ELISA, immobilised huCTLA-4, table head pH 7.0 (text: pH 7.4), Jul. 11, 2017
[5] = molecular target: T2, recombinant human CTLA4 extracellular …; experiment: ELISA, wells coated with human CTLA4, assay pH 7.4; lot 6972 in Glu buffer, T0; unit from the axis Log[ng/mL]
Procedure: as §1

B1: BA-087-08-32 (antibody, V domains shown)
VH: EVQLVQSGAEVKKPGATVKISCKVSGFTFSHYTMHWIRQSPSRGLEWLGFISYDGNYKYYADSVKGRFTISRDNAKNSLYLQMNSLRAEDTAVYYCARTGWLGPFDYWGQGTLVTVSS
VL: EIVMTQSPATLSVSPGERATLSCRASQSVGSSYLAWYQQKPGKAPKLLIYGAFSRATGVPSRFSGSGSGTDFTLTISSLQPEDFATYYCQQDGSSPWTFGQGTKVEIK
notes: Detected with anti-human IgG and a molecular weight of 146 kDa was used in SPR, so it was tested as a whole IgG; also called BA-087-08-032; BA-087-08-32 (# 6978)
EC50 [1]: 0.152 µg/mL

B2: BA-087-05-19 (antibody, V domains shown)
VH: EVQLVESGGGLVQPGGSLRLSCAASGFTFSHYTMHWVRQAPGKGLEWVSFISYDGNNKYYADSVKGRFTISRDNSKNTLYLQMNSLRAEDTAVYYCARTGWLGPFDYWGQGTLVTVSS
VL: AIQLTQSPSSLSASVGDRVTITCRASQYVGSSYLAWYLQKPGQSPQLLIYGAFSRATGIPARFSGSGSGTEFTLTISSLQSEDFAVYYCQQDGSSPWTFGQGTKVEIK
notes: Detected with anti-human IgG and a molecular weight of 146 kDa was used in SPR, so it was tested as a whole IgG; also called BA-087-05-019; BA-087-05-19 (# 6972)
EC50 [2]: 0.0101 µg/mL
EC50 [3]: 0.0934 µg/mL
EC50 [4]: 0.0502 µg/mL
EC50 [5]: 0.11 µg/mL
